Source: publication PMC2877719 (2010)
No end group written: not given here.

Molecular target: calmodulin (Homo sapiens, UniProt P0DP23)
Assay: FCS

Kd [nM] | Binder
> 5000 | LRKRIVFRKI (also: GST fusion)
45 | FARLTRALTSSRGVL (also: fluorescent label, unspecified) [hEAG1 BD-N]
327 | LRKRIVFRKI (also: fluorescent label, unspecified)
223 | RRLFQRFRQQK (also: fluorescent label, unspecified) [hEAG1 BD-C2]
